Numbered stars: 1 amine (or outer) side, 2 acyl side, 3 side chain; on linkers, the order of the positions; unused ones are H or OH. Bridge positions count the residues as written; N and C are the ends. Side chains are listed from the residue outwards. Ends that are not written are not given here. * marks the point of attachment. C20 diacid = O=C(O)CCCCCCCCCCCCCCCCCCC(=O)*; γGlu = O=C(O)[C@H](CCC(=O)[*:2])N[*:1]

We go through seven molecules from patent publication US20140087995A1 (published 2014).

Assay [1] deals with T1, human calcitonin receptor (human, UniProt P30988 25-474).
T1 construct: whole, on cells; also called hCTR; hCT
T1 sequence (looked up): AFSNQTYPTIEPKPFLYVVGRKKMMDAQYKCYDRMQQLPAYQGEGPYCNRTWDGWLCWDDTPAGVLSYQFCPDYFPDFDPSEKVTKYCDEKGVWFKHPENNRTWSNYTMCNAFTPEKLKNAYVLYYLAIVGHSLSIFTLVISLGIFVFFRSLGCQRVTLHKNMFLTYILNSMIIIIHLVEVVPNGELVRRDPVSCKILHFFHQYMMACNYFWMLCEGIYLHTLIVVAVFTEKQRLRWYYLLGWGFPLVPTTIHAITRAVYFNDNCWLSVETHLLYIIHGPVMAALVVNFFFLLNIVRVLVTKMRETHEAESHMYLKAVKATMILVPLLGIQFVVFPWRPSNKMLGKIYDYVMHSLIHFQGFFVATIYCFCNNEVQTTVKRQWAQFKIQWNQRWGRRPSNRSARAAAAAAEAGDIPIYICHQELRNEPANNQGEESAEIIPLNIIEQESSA
Kind of assay: SPA competition binding, membranes with human calcitonin receptor, displacement of 125I-calcitonin (Assay VII). The method in brief: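 BHK hCTR membranes 35 ng/μL + SPA beads 0.05 mg/well; buffer 50 mM Hepes pH 7.4, 1 mM CaCl2, 5 mM MgCl₂, 0.1% OA, 0.02% Tween20. 120 min, 25° C., shaking. Scintillation count; IC50 by one-site binding competition.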
(In general: In a radioligand displacement assay an active substance lowers the binding of a labelled ligand.)

The target of assay [2] is T1, human calcitonin receptor. Kind of assay: ratio of IC50 at hCTR to IC50 at the human amylin receptor (reference). The method in brief: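 Competition binding by SPA uses membrane preparations (35 ng/μL final) in pH 7.4 Hepes buffer with 1 mM CaCl2 and 5 mM MgCl₂. Incubation lasts 120 min at 25° C, and IC₅₀ comes from one-site fitting.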

B1: N^ε1-[(4S)--4-carboxy-4-(19-carboxynonadecanoylamino)butanoyl]-[Glu14,Arg17,Pro21,Pro27,Pro37]-h-amylin (peptide)
peptide: K([γGlu-C20 diacid])CNTATCATQRLAEFLRHSSPNFGAIPSSTNVGSNTP-NH2
modifications: disulfide 2-7; N-terminus assumed
SMILES: CC[C@H](C)[C@H](NC(=O)[C@H](C)NC(=O)CNC(=O)[C@H](Cc1ccccc1)NC(=O)[C@H](CC(N)=O)NC(=O)[C@@H]1CCCN1C(=O)[C@H](CO)NC(=O)[C@H](CO)NC(=O)[C@H](Cc1c[nH]cn1)NC(=O)[C@H](CCCNC(=N)N)NC(=O)[C@H](CC(C)C)NC(=O)[C@H](Cc1ccccc1)NC(=O)[C@H](CCC(=O)O)NC(=O)[C@H](C)NC(=O)[C@H](CC(C)C)NC(=O)[C@H](CCCNC(=N)N)NC(=O)[C@H](CCC(N)=O)NC(=O)[C@@H](NC(=O)[C@H](C)NC(=O)[C@@H]1CSSC[C@H](NC(=O)[C@@H](N)CCCCNC(=O)CC[C@H](NC(=O)CCCCCCCCCCCCCCCCCCC(=O)O)C(=O)O)C(=O)N[C@@H](CC(N)=O)C(=O)N[C@@H]([C@@H](C)O)C(=O)N[C@@H](C)C(=O)N[C@@H]([C@@H](C)O)C(=O)N1)[C@@H](C)O)C(=O)N1CCC[C@H]1C(=O)N[C@@H](CO)C(=O)N[C@@H](CO)C(=O)N[C@H](C(=O)N[C@@H](CC(N)=O)C(=O)N[C@H](C(=O)NCC(=O)N[C@@H](CO)C(=O)N[C@@H](CC(N)=O)C(=O)N[C@H](C(=O)N1CCC[C@H]1C(N)=O)[C@@H](C)O)C(C)C)[C@@H](C)O
notes: also called compound 12
By IC50 is commonly meant the concentration that inhibits the measured activity by half. Take B1: the IC50 in assay [1] is 0.353 nM. Besides, the “Ratio hCT/hAmylin binding” value in assay [2] is 2.5.

B2: N{Alpha-1}-[(4S)-4-carboxy-4-(19-carboxynonadecanoylamino)butanoyl]-[Glu14,Arg17,Pro21,Pro27,Lys34]-h-amylin (peptide)
peptide: {C20 diacid-γGlu}-KCNTATCATQRLAEFLRHSSPNFGAIPSSTNVGKNTY-NH2
modifications: disulfide 2-7
SMILES: CC[C@H](C)[C@H](NC(=O)[C@H](C)NC(=O)CNC(=O)[C@H](Cc1ccccc1)NC(=O)[C@H](CC(N)=O)NC(=O)[C@@H]1CCCN1C(=O)[C@H](CO)NC(=O)[C@H](CO)NC(=O)[C@H](Cc1c[nH]cn1)NC(=O)[C@H](CCCNC(=N)N)NC(=O)[C@H](CC(C)C)NC(=O)[C@H](Cc1ccccc1)NC(=O)[C@H](CCC(=O)O)NC(=O)[C@H](C)NC(=O)[C@H](CC(C)C)NC(=O)[C@H](CCCNC(=N)N)NC(=O)[C@H](CCC(N)=O)NC(=O)[C@@H](NC(=O)[C@H](C)NC(=O)[C@@H]1CSSC[C@H](NC(=O)[C@H](CCCCN)NC(=O)CC[C@H](NC(=O)CCCCCCCCCCCCCCCCCCC(=O)O)C(=O)O)C(=O)N[C@@H](CC(N)=O)C(=O)N[C@@H]([C@@H](C)O)C(=O)N[C@@H](C)C(=O)N[C@@H]([C@@H](C)O)C(=O)N1)[C@@H](C)O)C(=O)N1CCC[C@H]1C(=O)N[C@@H](CO)C(=O)N[C@@H](CO)C(=O)N[C@H](C(=O)N[C@@H](CC(N)=O)C(=O)N[C@H](C(=O)NCC(=O)N[C@@H](CCCCN)C(=O)N[C@@H](CC(N)=O)C(=O)N[C@H](C(=O)N[C@@H](Cc1ccc(O)cc1)C(N)=O)[C@@H](C)O)C(C)C)[C@@H](C)O
notes: also called compound 36
As to B2, in assay [1], the IC50 came out at 6.3 nM. For the same molecule, the “Ratio hCT/hAmylin binding” value in assay [2] came to 15.7.

B3: N^α1 N^α1-[(4S)-4-carboxy-4-[[(4S)-4-carboxy-4-(19-carboxynonadecanoylamino)butanoyl]amino]butanoyl]-[Glu14,Arg17,Pro21,Pro27]-h-amylin (peptide)
peptide: {C20 diacid-γGlu-γGlu}-KCNTATCATQRLAEFLRHSSPNFGAIPSSTNVGSNTY-NH2
modifications: disulfide 2-7
SMILES: CC[C@H](C)[C@H](NC(=O)[C@H](C)NC(=O)CNC(=O)[C@H](Cc1ccccc1)NC(=O)[C@H](CC(N)=O)NC(=O)[C@@H]1CCCN1C(=O)[C@H](CO)NC(=O)[C@H](CO)NC(=O)[C@H](Cc1c[nH]cn1)NC(=O)[C@H](CCCNC(=N)N)NC(=O)[C@H](CC(C)C)NC(=O)[C@H](Cc1ccccc1)NC(=O)[C@H](CCC(=O)O)NC(=O)[C@H](C)NC(=O)[C@H](CC(C)C)NC(=O)[C@H](CCCNC(=N)N)NC(=O)[C@H](CCC(N)=O)NC(=O)[C@@H](NC(=O)[C@H](C)NC(=O)[C@@H]1CSSC[C@H](NC(=O)[C@H](CCCCN)NC(=O)CC[C@H](NC(=O)CC[C@H](NC(=O)CCCCCCCCCCCCCCCCCCC(=O)O)C(=O)O)C(=O)O)C(=O)N[C@@H](CC(N)=O)C(=O)N[C@@H]([C@@H](C)O)C(=O)N[C@@H](C)C(=O)N[C@@H]([C@@H](C)O)C(=O)N1)[C@@H](C)O)C(=O)N1CCC[C@H]1C(=O)N[C@@H](CO)C(=O)N[C@@H](CO)C(=O)N[C@H](C(=O)N[C@@H](CC(N)=O)C(=O)N[C@H](C(=O)NCC(=O)N[C@@H](CO)C(=O)N[C@@H](CC(N)=O)C(=O)N[C@H](C(=O)N[C@@H](Cc1ccc(O)cc1)C(N)=O)[C@@H](C)O)C(C)C)[C@@H](C)O
notes: also called compound 15
Regarding B3, the IC50 in assay [1] is 15.5 nM. In addition, the “Ratio hCT/hAmylin binding” value in assay [2] amounted to 26.

B4: N^α1-[2-[2-[2-[[2-[2-[2-[[(4S)-4-carboxy-4-(19-carboxynonadecanoylamino)butanoyl]amino]ethoxy]ethoxy]acetyl]amino]ethoxy]ethoxy]acetyl]-[Glu14,Arg17,Pro21,Pro27 … (peptide)
peptide: KCNTATCATQRLAEFLRHSSPNFGAIPSSTNVGSNTY
modifications: C20 diacid-gGlu-2xOEG on the alpha amino group of the N-terminal residue; disulfide bridge Cys2-Cys7; C-terminal amide
notes: also called compound 19
On to B4, for which the 50% inhibitory concentration (IC50) in assay [1] was 20.4 nM. The “Ratio hCT/hAmylin binding” value in assay [2] came out at 36.7.

B5: N^ε-[(4S)-4-carboxy-4-(19-carboxynonadecanoylamino)butanoyl]Lys[Arg1,Arg17,Pro21,Pro27,His35]-h-amylin (peptide)
peptide: K([γGlu-C20 diacid])RCNTATCATQRLANFLRHSSPNFGAIPSSTNVGSHTY-NH2
modifications: disulfide 3-8; N-terminus assumed
SMILES: CC[C@H](C)[C@H](NC(=O)[C@H](C)NC(=O)CNC(=O)[C@H](Cc1ccccc1)NC(=O)[C@H](CC(N)=O)NC(=O)[C@@H]1CCCN1C(=O)[C@H](CO)NC(=O)[C@H](CO)NC(=O)[C@H](Cc1c[nH]cn1)NC(=O)[C@H](CCCNC(=N)N)NC(=O)[C@H](CC(C)C)NC(=O)[C@H](Cc1ccccc1)NC(=O)[C@H](CC(N)=O)NC(=O)[C@H](C)NC(=O)[C@H](CC(C)C)NC(=O)[C@H](CCCNC(=N)N)NC(=O)[C@H](CCC(N)=O)NC(=O)[C@@H](NC(=O)[C@H](C)NC(=O)[C@@H]1CSSC[C@H](NC(=O)[C@H](CCCNC(=N)N)NC(=O)[C@@H](N)CCCCNC(=O)CC[C@H](NC(=O)CCCCCCCCCCCCCCCCCCC(=O)O)C(=O)O)C(=O)N[C@@H](CC(N)=O)C(=O)N[C@@H]([C@@H](C)O)C(=O)N[C@@H](C)C(=O)N[C@@H]([C@@H](C)O)C(=O)N1)[C@@H](C)O)C(=O)N1CCC[C@H]1C(=O)N[C@@H](CO)C(=O)N[C@@H](CO)C(=O)N[C@H](C(=O)N[C@@H](CC(N)=O)C(=O)N[C@H](C(=O)NCC(=O)N[C@@H](CO)C(=O)N[C@@H](Cc1c[nH]cn1)C(=O)N[C@H](C(=O)N[C@@H](Cc1ccc(O)cc1)C(N)=O)[C@@H](C)O)C(C)C)[C@@H](C)O
notes: extended by one residue at the N-terminus; also called compound 44
Turning to B5, in assay [1], the IC50 was found to be 4.87 nM. In addition, the “Ratio hCT/hAmylin binding” value in assay [2] was determined as 17.7.

B6: N^-1-[(4S)-4-carboxy-4-(19-carboxynonadecanoylamino)butanoyl]-Gly[Arg1,Arg17,Pro21,Pro27]-h-amylin (peptide)
peptide: {C20 diacid-γGlu}-GRCNTATCATQRLANFLRHSSPNFGAIPSSTNVGSNTY-NH2
modifications: disulfide 3-8
SMILES: CC[C@H](C)[C@H](NC(=O)[C@H](C)NC(=O)CNC(=O)[C@H](Cc1ccccc1)NC(=O)[C@H](CC(N)=O)NC(=O)[C@@H]1CCCN1C(=O)[C@H](CO)NC(=O)[C@H](CO)NC(=O)[C@H](Cc1c[nH]cn1)NC(=O)[C@H](CCCNC(=N)N)NC(=O)[C@H](CC(C)C)NC(=O)[C@H](Cc1ccccc1)NC(=O)[C@H](CC(N)=O)NC(=O)[C@H](C)NC(=O)[C@H](CC(C)C)NC(=O)[C@H](CCCNC(=N)N)NC(=O)[C@H](CCC(N)=O)NC(=O)[C@@H](NC(=O)[C@H](C)NC(=O)[C@@H]1CSSC[C@H](NC(=O)[C@H](CCCNC(=N)N)NC(=O)CNC(=O)CC[C@H](NC(=O)CCCCCCCCCCCCCCCCCCC(=O)O)C(=O)O)C(=O)N[C@@H](CC(N)=O)C(=O)N[C@@H]([C@@H](C)O)C(=O)N[C@@H](C)C(=O)N[C@@H]([C@@H](C)O)C(=O)N1)[C@@H](C)O)C(=O)N1CCC[C@H]1C(=O)N[C@@H](CO)C(=O)N[C@@H](CO)C(=O)N[C@H](C(=O)N[C@@H](CC(N)=O)C(=O)N[C@H](C(=O)NCC(=O)N[C@@H](CO)C(=O)N[C@@H](CC(N)=O)C(=O)N[C@H](C(=O)N[C@@H](Cc1ccc(O)cc1)C(N)=O)[C@@H](C)O)C(C)C)[C@@H](C)O
notes: extended by one residue at the N-terminus; also called compound 46
As for B6, the IC50 in assay [1] stood at 9.53 nM. In assay [2], the “Ratio hCT/hAmylin binding” value was found to be 48.9.

B7: N^-1-[(4S)-4-carboxy-4-(19-carboxynonadecanoylamino)butanoyl]-Gly[Arg1,Arg17,Pro21,Pro27,His35]-h-amylin (peptide)
peptide: {C20 diacid-γGlu}-GRCNTATCATQRLANFLRHSSPNFGAIPSSTNVGSHTY-NH2
modifications: disulfide 3-8
SMILES: CC[C@H](C)[C@H](NC(=O)[C@H](C)NC(=O)CNC(=O)[C@H](Cc1ccccc1)NC(=O)[C@H](CC(N)=O)NC(=O)[C@@H]1CCCN1C(=O)[C@H](CO)NC(=O)[C@H](CO)NC(=O)[C@H](Cc1c[nH]cn1)NC(=O)[C@H](CCCNC(=N)N)NC(=O)[C@H](CC(C)C)NC(=O)[C@H](Cc1ccccc1)NC(=O)[C@H](CC(N)=O)NC(=O)[C@H](C)NC(=O)[C@H](CC(C)C)NC(=O)[C@H](CCCNC(=N)N)NC(=O)[C@H](CCC(N)=O)NC(=O)[C@@H](NC(=O)[C@H](C)NC(=O)[C@@H]1CSSC[C@H](NC(=O)[C@H](CCCNC(=N)N)NC(=O)CNC(=O)CC[C@H](NC(=O)CCCCCCCCCCCCCCCCCCC(=O)O)C(=O)O)C(=O)N[C@@H](CC(N)=O)C(=O)N[C@@H]([C@@H](C)O)C(=O)N[C@@H](C)C(=O)N[C@@H]([C@@H](C)O)C(=O)N1)[C@@H](C)O)C(=O)N1CCC[C@H]1C(=O)N[C@@H](CO)C(=O)N[C@@H](CO)C(=O)N[C@H](C(=O)N[C@@H](CC(N)=O)C(=O)N[C@H](C(=O)NCC(=O)N[C@@H](CO)C(=O)N[C@@H](Cc1c[nH]cn1)C(=O)N[C@H](C(=O)N[C@@H](Cc1ccc(O)cc1)C(N)=O)[C@@H](C)O)C(C)C)[C@@H](C)O
notes: extended by one residue at the N-terminus; also called compound 47
As to B7, the IC50 in assay [1] was 15.5 nM. Moreover, the “Ratio hCT/hAmylin binding” value in assay [2] came out at 44.9.
